Experimental data: paper PMC9279156, “A peroxisomal ubiquitin ligase complex forms a retrotranslocation channel” (Nature, 2022)

T1: T. thermophilus Pex12 (1–439) with an N-terminal SBP tag (Thermothelomyces thermophilus, UniProt G2Q5N0 1-439)
T1 construct: Pex12 of Thermothelomyces thermophilus, residues 1-439; codon-optimised synthetic gene; the SBP tag is followed by a HRV3C protease cleavage site; also called T.t; Pex12; source: P. pastoris SMD1168, co-expressed with Pex2 and Pex10, purified (streptavidin resin, gel filtration) in digitonin; not shown: SBP, N-terminal, kept
T1 sequence (looked up): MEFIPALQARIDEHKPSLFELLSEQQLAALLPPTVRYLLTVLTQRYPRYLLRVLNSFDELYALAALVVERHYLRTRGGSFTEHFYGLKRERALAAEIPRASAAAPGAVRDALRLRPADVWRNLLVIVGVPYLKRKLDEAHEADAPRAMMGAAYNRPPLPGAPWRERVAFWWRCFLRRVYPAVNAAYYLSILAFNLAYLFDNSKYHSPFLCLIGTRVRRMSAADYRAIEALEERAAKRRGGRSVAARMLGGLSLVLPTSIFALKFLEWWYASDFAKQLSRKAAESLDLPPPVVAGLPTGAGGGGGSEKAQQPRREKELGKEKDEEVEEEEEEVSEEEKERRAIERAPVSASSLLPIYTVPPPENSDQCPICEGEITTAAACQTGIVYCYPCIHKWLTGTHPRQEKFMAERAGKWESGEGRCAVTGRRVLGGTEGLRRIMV

B1: T. thermophilus Pex2 (140–495) (domain or fragment, Thermothelomyces thermophilus, UniProt G2Q1C9 140-495, looked up)
chain: SREGTRPAFRVGQVDAELLDEELVELLRGQVREALRYVGGGGGGGGGGGGGGVGSGVAQDWEAEISLALRAVLFKLTVWDHDATYGAALQNLKYTDARRDGPALAPPSRWQKALYGLVTVGGRYLWAKWEDWLLEQDDGFEGPSPRVKRLARWTSALSTLHASAALVSFLVFLLHGRYRTLLDRLLRMRLAPPTSQVSREVSFEYLNRQLVWHAFTEFLLFVLPLVGINRWRRWLARTWRRTKKIMTADADGGAGDKKGEYSFLPERTCAICYRDQNSASSETELLAAASGGVVGSAQTDITNPYEAIPCGCTYCFVCLATRIEREEGEGWPCLRCGELIKECKPWNGDVLEEPQV
notes: Pex2 of Thermothelomyces thermophilus, residues 140-495; codon-optimised synthetic gene; also called T.t; Pex2; source: P. pastoris SMD1168, co-expressed with Pex10 and Pex12, purified (streptavidin resin, gel filtration) in digitonin
B2: T. thermophilus Pex10 (1–454) (natural protein, Thermothelomyces thermophilus, UniProt G2Q0E2 1-454, looked up)
chain: MATQPPPARPPPPLTSSPYPYAAAPDIIRAHQKDAYFQGVLANRLSDLHRRLRGARSAHAWAAETRTFAAALYLCLTTLLGNRTLGEEYCDLVQVEEAPSKLFASSSSKAADDHIYENGLGGGGDGGPLLPSLPRRAGYILTAIVLPHLASRALPSVRSAIRKRLQSRLATLSRRRQQTGTKSGSGRGGRGGGGGITEYRVLRYLLTHLTPLTSGAHFRAATLAVFYFTGAYYELSKWVWGLRYVFTTRAGRVVDDDHNRHHHSPQHGGGNGGRAGYEVLGVLLVVQMAVRAWLHVREQLSSGSVAGGGGEEEEDGEDGFRERTAFGPGTNVDVSLDEHAFTSNNELLGGGGGGGGSSSQRSLGEIGAMAHTPVLKAGRARYDLGTSDKVMGWIKGAQQRKCTLCLEELKDPAATQCGHVFCWACIGDWVREKPECPLCRREAMVQHILPLRAA
notes: Pex10 of Thermothelomyces thermophilus, residues 1-454; codon-optimised synthetic gene; also called T.t; Pex10; source: P. pastoris SMD1168, co-expressed with Pex2 and Pex12, purified (streptavidin resin, gel filtration) in digitonin

Target: T1, T. thermophilus Pex12 (1–439) with an …
Assay: pull-down + SEC; Pex2, Pex10 and SBP-Pex12 co-expressed in P. pastoris; membranes solubilised in 1% LMNG; captured on streptavidin resin through SBP-Pex12, eluted with biotin, gel filtration (Superose 6) in 25 mM HEPES pH 7.4, 150 mM NaCl, 0.05% digitonin; fractions by SDS-PAGE and Coomassie staining
Conditions: partners not purified

Binder | stoichiometry N
B1 | 1
B2 | 1
